Data taken from article PMC5835670.

Biological target: SbSTOP1d-NT (N-terminal fragment of SbSTOP1d, 1-275 aa, truncated before the zinc finger domain) fused to the GAL4 DNA-binding domain (Sorghum bicolor (sweet sorghum))
Experiment: two-hybrid; β-galactosidase assay in yeast strain Y190 with CPRG as substrate, Miller units; BD-SbSTOP1d-NT bait, AD fusion prey

Row | Substance | β-galactosidase activity, fold of the control (times that of the control)
1 | SbSTOP1b fused to the GAL4 activation domain (natural protein) | 80
2 | SbSTOP1d fused to the GAL4 activation domain (natural protein) | 450
